Laboratory results published in patent publication US20140219982A1, “EXOGENOUS OPIOID PEPTIDE-DEGRADING ENZYME” (priority 2011, published 2014).

Test system: gliadorphin (YPQPQPF: SEQ ID NO: 2)
Test: Analysis of gliadorphin degradation product by LC-MS
Format: biochemical

B1: papain (protein, UniProt P00784 134-345, looked up)
Papain: IPEYVDWRQKGAVTPVKNQGSCGSCWAFSAVVTIEGIIKIRTGNLNEYSEQELLDCDRRSYGCNGGYPWSALQLVAQYGIHYRNTYPYEGVQRYCRSREKGPYAAKTDGVRQVQPYNEGALLYSIANQPVSVVLEAAGKDFQLYRGGIFVGPCGNKVDHAVAAVGYGPNYILIKNSWGTGWGENGYIRIKRGTGNSYGVCGLYTSSFYPVKN
notes: protease, commercial (Asahi Food & Healthcare Co., Ltd.)
detection of undegraded 7-mer of gliadorphin (LC-MS of degradation product): undegraded 7-mer was detected | direct degradability for exomorphine peptide (papain alone, as shown in the examples): did not exhibit direct degradability
